Measured values: CN117836322A (PASTEUR INSTITUT, dated 2024)
Several values for one entry are separate records, joined by “and”; a condition that tells them apart may be missing. Equal values may be shown once.

B1: Cv2.3194 IgG1 (antibody, V domains shown)
VH: EVQLVESGGGLIQPGGSLRLSCAASGITVTSNYMSWVRQAPGKGLEWVSVIYPGGSTFYADSVKGRFTISRDNSKNTLYLQMNSLRAEDTAVYYCARDLVVYGMDVWGQGTTVTVSS
VL: EIVLTQSPGTLSLSPGERATLSCRASQSVSSSYLAWYQQKPGQAPRLLIYGASSRATGIPGRFSGSGSGTDFTLTISRLEPEDFAIYYCQQGVTFGGGTKVEIKR
B2: Cv2.1169 IgG1 (antibody, V domains shown)
VH: QVQLVQSGPEVKKPGTSVKVSCKASGFTFTTSAVQWVRQARGQRLEWIGWIVVGSGNTNYAQKFQERVTITRDMSTTTAYMELSSLRSEDTAVYYCAAPYCSGGTCLDGFDIWGQGTMVTVSS
VL: not shown

Assays:
[1] = molecular target: SARS-CoV-2 Omicron BA.1 spike on virus (SARS-CoV-2); assay: cell-based or functional assay
[2] = molecular target: SARS-CoV-2 Delta (δ, B.1.617.2) spike on virus (SARS-CoV-2); assay: cell-based or functional assay

| Binder | IC50 (S-融合测定) [1] | IC50 (S-融合测定) [2] [µg/mL] | IC50 (中和) [1] [µg/mL] |
| --- | --- | --- | --- |
| B1 | 0.0242 µg/mL |  |  |
| B2 | 0.253 µg/mL and 0.212 µg/mL | 0.00446 | ~0.25 |
